According to patent US20120207760A1:

B1: TCN-504 (3251_K17) (antibody, V domains shown)
VH: QVQLQESGPGLVKPSETLSLTCAVSGVSISNIDFYWGWIRQPPGKGLEWIGNIYYTGITFYNPSLSSRVAISIDTSKNQFSLTLTSVTAADTAMYYCARHYGDSEAINDAFDIWGQGTMLTVSS
VL: EIVMTQSPATLSVSPGERATLSCRASQSVGNSLAWYQQRPGQAPRLLIYGASTRATGIPPRFSGSGSGTEFTLTISSLQTEDFAVYYCQQYINWRPLSFGGGTKVEIK
B2: TCN-523 (5248_A17) (antibody, V domains shown)
VH: QVQLVQSGAEVKKPGSSVKVSCKASGGSFSNYAFSWVRQAPGQGLEWMGGTIPLLGTTNYAQKFQGRVTISADQFTSTAYMELGSLRSEDTAVYYCTRRKMTTAFDSWGQGTLVTVSS
VL: QPVLTQPPSASASLGASVTLTCTLSSAYSNYKVDWYQQRPGKGPRFVMRVGTGGIVGSKGDGIPDRFSVLGSGLNRYLTIKNIQEEDESDYHCGADHGSGSNFVSPYVFGGGTKLTVL

Experiments:
Details in all cases: remark: other sources report otherwise
[1] = biological target: T1, recombinant homotrimeric HA, A/Japan/305/57 H2N2 (Influenza A virus A/Japan/305/57 (H2N2)); experiment: trimeric HA microarray, transfection set 2
[2] = biological target: T2, recombinant homotrimeric HA, A/California/4/09 H1N1 (Influenza A virus A/California/4/09 (H1N1)); experiment: trimeric HA microarray, transfection set 2
[3] = biological target: T3, recombinant homotrimeric HA, A/Indonesia/5/05 H5N1 (Influenza A virus A/Indonesia/5/05 (H5N1)); experiment: trimeric HA microarray, transfection set 2
[4] = biological target: recombinant homotrimeric HA, A/Hong Kong/2108/03 H9N2 (Influenza A virus A/Hong Kong/2108/03 (H9N2)); experiment: trimeric HA microarray, transfection set 2
[5] = biological target: recombinant homotrimeric HA, A/common magpie/Hong Kong/5052/07 H5N1 (Influenza A virus A/common magpie/Hong Kong/5052/07 (H5N1)); experiment: trimeric HA microarray, transfection set 2
[6] = biological target: recombinant homotrimeric HA, A/Egypt/3300-NAMRU3/08 H5N1 (Influenza A virus A/Egypt/3300-NAMRU3/08 (H5N1)); experiment: trimeric HA microarray, transfection set 2
[7] = biological target: recombinant homotrimeric HA, A/chicken/Vietnam/NCVD-016/08 H5N1 (Influenza A virus A/chicken/Vietnam/NCVD-016/08 (H5N1)); experiment: trimeric HA microarray, transfection set 2
[8] = biological target: T4, recombinant homotrimeric HA, A/South Carolina/1/18 H1N1 (Influenza A virus A/South Carolina/1/18 (H1N1)); experiment: trimeric HA microarray, transfection set 2
[9] = biological target: T5, recombinant homotrimeric HA, A/swine/Ontario/01911-2/99 H4N6 (Influenza A virus A/swine/Ontario/01911-2/99 (H4N6)); experiment: trimeric HA microarray, transfection set 2
[10] = biological target: T6, recombinant homotrimeric HA, A/Vietnam/1203/04 H5N1 (Influenza A virus A/Vietnam/1203/04 (H5N1)); experiment: trimeric HA microarray, transfection set 2
[11] = biological target: T7, recombinant homotrimeric HA, A/Solomon Islands/3/06 H1N1 (Influenza A virus A/Solomon Islands/3/06 (H1N1)); experiment: trimeric HA microarray, transfection set 2
[12] = biological target: T8, recombinant homotrimeric HA, A/Anhui/1/05 H5N1 (Influenza A virus A/Anhui/1/05 (H5N1)); experiment: trimeric HA microarray, transfection set 3
[13] = biological target: T9, recombinant homotrimeric HA, A/Netherlands/219/03 H7N7 (Influenza A virus A/Netherlands/219/03 (H7N7)); experiment: trimeric HA microarray, transfection set 3
[14] = biological target: T1, recombinant homotrimeric HA, …; experiment: trimeric HA microarray, transfection set 4
[15] = biological target: T2, recombinant homotrimeric HA, …; experiment: trimeric HA microarray, transfection set 4
[16] = biological target: T3, recombinant homotrimeric HA, …; experiment: trimeric HA microarray, transfection set 4
[17] = biological target: T4, recombinant homotrimeric HA, A/South …; experiment: trimeric HA microarray, transfection set 4
[18] = biological target: T5, recombinant homotrimeric HA, …; experiment: trimeric HA microarray, transfection set 4
[19] = biological target: T6, recombinant homotrimeric HA, …; experiment: trimeric HA microarray, transfection set 4
[20] = biological target: T7, recombinant homotrimeric HA, A/Solomon …; experiment: trimeric HA microarray, transfection set 4
[21] = biological target: T10, recombinant homotrimeric HA, A/Wisconsin/67/05 H3N2 (Influenza A virus A/Wisconsin/67/05 (H3N2)); experiment: trimeric HA microarray, transfection set 5
[22] = biological target: recombinant soluble homotrimeric HA of A/Hong Kong/2108/03 (H9N2) (Influenza A virus A/Hong Kong/2108/03 (H9N2)); experiment: microarray, control antibody, trimeric HA
[23] = biological target: T8, recombinant homotrimeric HA, …; experiment: trimeric HA microarray, transfection set 1
[24] = biological target: recombinant homotrimeric HA, A/duck/Yangzhou/02/05 H8N4 (Influenza A virus A/duck/Yangzhou/02/2005 (H8N4)); experiment: trimeric HA microarray, transfection set 1
[25] = biological target: T10, recombinant homotrimeric HA, …; experiment: trimeric HA microarray, transfection set 1
[26] = biological target: T9, recombinant homotrimeric HA, …; experiment: trimeric HA microarray, transfection set 1
[27] = biological target: T11, recombinant homotrimeric HA, A/northern shoveler/California/HKWF115/07 (Influenza A virus A/northern shoveler/California/HKWF115/2007 (H6N1)); experiment: trimeric HA microarray, transfection set 3
[28] = biological target: T11, recombinant homotrimeric HA, A/northern …; experiment: trimeric HA microarray, transfection set 1
[29] = biological target: recombinant homotrimeric HA, A/Hong Kong/1073/99 H9N2 (Influenza A virus A/Hong Kong/1073/99 (H9N2)); experiment: trimeric HA microarray, transfection set 1

Binder	Trimeric HA Binding RLU [1]	Trimeric HA Binding RLU [2]	Trimeric HA Binding RLU [3]	Trimeric HA Binding RLU [4]	Trimeric HA Binding RLU [5]	Trimeric HA Binding RLU [6]	Trimeric HA Binding RLU [7]	Trimeric HA Binding RLU [8]	Trimeric HA Binding RLU [9]	Trimeric HA Binding RLU [10]	Trimeric HA Binding RLU [11]	Trimeric HA Binding RLU [14]	Trimeric HA Binding RLU [15]	Trimeric HA Binding RLU [16]	Trimeric HA Binding RLU [17]	Trimeric HA Binding RLU [18]	Trimeric HA Binding RLU [19]	Trimeric HA Binding RLU [20]	also measured
B1	22600 RLU	15600 RLU	19700 RLU	23 RLU	16800 RLU	21400 RLU	27300 RLU	24700 RLU	32500 RLU	15000 RLU	31400 RLU	19600 RLU	549 RLU	18200 RLU	21700 RLU	21800 RLU	25700 RLU	14600 RLU	Trimeric HA Binding RLU [12]: 30000 RLU; Trimeric HA Binding RLU [13]: 19600 RLU; Trimeric HA Binding RLU [21]: 38100 RLU; Trimeric HA Binding: RLU [22]: 454 RLU; Trimeric HA Binding RLU [23]: 29000 RLU; Trimeric HA Binding RLU [24]: 28900 RLU; Trimeric HA Binding RLU [25]: 14300 RLU; Trimeric HA Binding RLU [26]: 23800 RLU
B2	882 RLU	18700 RLU	24500 RLU	18 RLU	7210 RLU	30700 RLU	17600 RLU	25500 RLU	82 RLU	26200 RLU	3270 RLU	3840 RLU	28800 RLU	24500 RLU	23000 RLU	850 RLU	30900 RLU	371 RLU	Trimeric HA Binding RLU [27]: 29400 RLU; Trimeric HA Binding RLU [28]: 9050 RLU; Trimeric HA Binding RLU [29]: 21700 RLU
